We go through 16 sequences from a protein production outcome set (Wang et al. 2014).

A short description of this data set: label from the status in PepcDB records.

On to “MFLKKGKKKLYKSGKNWVAALLLSAAVLSFYSAGLNQQTASAATSSQTKAVSYDKITNKQTVNYSAYVNENNRNDGLYSAPALTDVASMTSTGSAKSLNGHLVMVSEIDTTKRASTGVSYQYAKITDNNKSYWVDLRALNDSAQITSTQTVNFQAYINGDTRNDGLYSAPALTTSSSLTPLAYSKSLNKKSVMVSEINTTKRASTGLSYQYAKITYNGKTYWVDARAVFDSITSKQTNLNYYATISETNRNDGIYEEPALTSLASMASTGSVKTFDQDSVEVLEIDTTFRNSNDQKYQYAKVTNGTNTYWVDVRALNTSGFAKITSSKTEDYSAYINEANRKDSIYDNGPALTSPTTLTASALAKTVNGDQVEVIALDTTTRSNGSQYTYLEVKDGSNTYWIDSRAVTAYNFDSITNQQTVNETATINEGGRSDGLYNAPALTSPSSLTSTGSAKDLDGQTVTILEIDTTKRASNGNTYQYAKIAYNGKTYWVDARALNNSTYSGAIMVNFEDENGNQLASPIEYTGKIGSTYQPEPKAITGYSVDLAKTGSIDLTYSSTTQTITYIYEKSTATTTDLINGQGQGIDNDSWTVGSDVQPGWYKITPIGLGTDDNIVLNVEGSDSSDLPLANDISGAWFGSDSSAGEISSYQAYLTAGQVIEMQDNGTDAAAGQGLHLETLSTRPATSLIDPESPIPSSFQDLGAGIYEVGVDIRPGNYQVADILGEGYLYTDDGTVSLDLGTGHGDTSTGTITLTTGELLTSTINGISLEPEN”, for which the protein production result is “failed”.

For “MFLNGKVFIKGALGPRRRDASVSATQSQGAGGGVWGGPGSELAPPSRPRGRASGLLRIKLFEASRLRSRERKMAAPAGGGGSAVSVLAPNGRRHTVKVTPSTVLLQVLEDTCRRQDFNPSEYDLKFQRTVLDLSLQWRFANLPNNAKLEMVPASRSREGPENTVRIALQLDDGCRLQDSFCSRQTLWELLNHFAQTRERLQQLGERTPVCVYMRDEVTGRAALQNTTLQSLGLTGGSATIRFVIKQYDTTGKQESIAVRSKPPGSPVSSMSADQASSSPLLPLNSGEFSRGDLNHQGGASTSGTSLKGGPKPADAQTKQSTTKESASAPFIPFSGGGQRLGGPSVSLRSLTSPAAKSSTSFSGPGGPSKPKKSKPGEEPPQEPEPPVDRDPVVCHPDLEDLLQPWPAEVPDEFFEVTVDDVRRRLAQLKSERKRLEEAPLVTKAFREAQMKEKLERYPKVALRVLFPDRYILQGFFRPSETVGDLRDFVRSHLGNPELSFYLFIAPPKMVLDDHTLTLFQVPIALRVLLGLAVLGGQALCCGWVGKEPWQALQWVIKPLEPVNSEGAVASEVVSDWAFQPPPLPAWPRGGDWPAQLAGLLSSAGAA”, the protein production entry is listed as “failed”.

Take “MFLSAASSIIYLLLFFIASLIILVFSSDAFFDNAVPMFRSRGIGDMYAGTIFVGFASVLDEIALSASSLIFRHPEIGIGAVEGSNLITMAFFTVIVAVSYLEVAGEFTLDMIVILVLTILSMVFAEIFVHIPWFYSIALFVPFVVYLVIKAGGSKEAGYGPQEYSNIVLIVSFFLIFLSSDTLVRSTIGIASYTGINLVDLSAYGIGMVSSFPEIIMILVSLRGGRKVVSMGIFTGSTVYKMSLIPGIIIVSEPTGFSDIFYMLLAILVMSLLVLFLGIMSRKSQGRSNIH”: the protein production entry is on record as “failed”.

Take “MFLSRPLVRIASAADRFLHGETEVKIPVKHDDEIGRLARAFNYLSEEIVRLTRKEEWLREVLSSIREAIIVTNASGEIVLANPAASRLFMIEAARKRSIPVTNIEDAAMRELFERVQKRQSGIYNEELTAMTSKGKRTLKVTAVPVMRRGALFDGTVLVINDVTRLRNLERTRRDFVSSVSHELRTPLASIKGYTETLLEGAMNDPENATAFLNIIHQEAEQLTALVNDVLDLSRIESGKIAYSFEPVDVKPQLEKTAALFEPAAARKGVRIELNAPEGLPAVLADRSYFDIVVRNLIDNAIKYVDAESGRVRVSAYATGDSVSIEVADNGIGIPQADLDRIFERFYRVDKARSRELGGTGLGLSIVKHIVLAHKGKVEVRSRINRGTTFTVTLPVAGA”: the protein production result is on record as “failed”.

Take “MFLTAVNPQPLSTPSWQIETKYSTKVLTGNWMEERRKFTRDTDKTPQSIYRKEYIPFPDHRPDQISRWYGKRKVEGLPYKHLITHHQEPPHRYLISTYDDHYNRHGYNPGLPPLRTWNGQKLLWLPEKSDFPLLAPPTNYGLYEQLKQRQLTPKAGLKQSTYTSSYPRPPLCAMSWREHAVPVPPHRLHPLPHF”: the protein production entry was “failed”.

Turning to “MFMNRLFGKPKQETSTLQTLDKLNETLEMLEKKENVLLKKATGEVEKAKEFSRAKNKRAAIQCLKRKRLYEQQVEQLGNFQLRIHDQMIMLEGAKATTETVDALRTGASAMKAMQKATNIDDVDKTMDEINEQTENMKQIQEALSAPFGANDFDEDELEAELDELEGAELEEQLLQPVPIHVPQGNKPARAPAQKQPTAEEDELAALQAEMAL”, the protein production result is given as “failed”.

As to “MFNFAVSRESLLSGFQWFFFIFCNTVVVPPTLLSAFQLPQSSLLTLTQYAFLATALACFAQAFCGHRRAIMEGPGGLWWGTILTITLGEASRGTPINDIATSLAVGIALSGVLTMLIGFSGLGHRLARLFTPSVMVLFMLMLGAQLTTIFFKGMLGLPFGIADPNFKIQLPPFALSVAVMCLVLAMIIFLPQRFARYGLLVGTITGWLLWYFCFPSSHSLSGELHWQWFPLGSGGALSPGIILTAVITGLVNISNTYGAIRGTDVFYPQQGAGNTRYRRSFVATGFMTLITVPLAVIPFSPFVSSIGLLTQTGDYTRRSFIYGSVICLLVALVPALTRLFCSIPLPVSSAVMLVSYLPLLFSALVFSQQITFTARNIYRLALPLFVGIFLMALPPVYLQDLPLTLRPLLSNGLLVGILLAVLMDNLIPWERIE”, the protein production entry is on record as “failed”.

For “MFNGMVRTIRDSVVGTYPSCHVSSRLEERRAKQRAMRQERRRKPDKPDDFVTYEDSGSDEETPQQQEEVLNTSYNLCDYLRSRESGLRDRRSVNVEYTSRYVLTHDMLRETQISLGYINKVFCSKWLSSRQVVFGTKCNKLLVYDVNMRRVDAIPTLSNSRANHPEVQGGLHAIELSPSRSFLATGARNSSDIAVYRLPTLDPVCVGEGGHRDLIMGMCWLDDQFLVSGSKDSRMALWRINEDHMEFPDGGEEACPTFATIHPLSVKEVRTAQRIRSLCFNKEFKEIAALSLNGYIHIFNAETFKQTLSRKLPNCQDNVSIAYHSDGLYAVGCRSYTILLDARTLQTIKKITSRYSGCGIRATSFEGNLLTVGTGLGMLLFYDIRAGKYLESSVNASRTVALKCSKGIVYPEDEMDGFQQVKYVPAIYTHCYDSTRMRLFAAGGPLPATLVGNYAGVWQ”, the protein production result is listed as “failed”.

For “MFNNDRLLVQILLLALFGACLWVMAPFWSALVWGAVLAFASWPLMRLLTRWFKGRESLAALVMCLCWMLLVAAPLVWLGFNLADHVRDATALIKDIQVDGLPDPPQWLAGIPLVGERLVGLWTTIDQQGAAFMTTVKPYLGEVGNWLLARSAQIGGGILELTLSIVFAFFFYRDGPRLAAFVLSLLERLIGDRAQYYLDLVAGTVQRVVNGVIGTAAAQALLALIGFLIAGIPGALVLGILTFLFSLIPMGPPLVWLPATAWLVWQGEYGMAIFLGIWGMFVISGVDNVLKPYLISRGGNLPLVIVLLGVFGGLLAFGFIGLFIGPTLLAVAYSLLTDWVGSERARNPR”, the protein production entry was “failed”.

Turning to “MFPFGPHSPGGDETAGAEEPPPLGGPAAASRPPSPAPRPASPQRGADAASPPPVAGSPRLPGGPAVSPAERAGEFAAPGALELSAATASASQAKLSPSSSPRRRSRPDWRAGGRSRQGLGAGLGGPGARLFGWLRERSLGRGLFVDPARDNFRTMTNLYGSIHPADSVYLSTRTHGAVFNLEYSPDGSVLTVACEQTEVLLFDPISSKHIKTLSEAHEDCVNNIRFLDNRLFATCSDDTTIALWDLRKLNTKVCTLHGHTSWVKNIEYDTNTRLLVTSGFDGNVIIWDTNRCTEDGCPHKKFFHTRFLMRMRLTPDCSKMLISTSSGYLLILHELDLTKSLEVGSYPILRARRTTSSSDLTTTSSSSGSRVSGSPCHHNDSNSTEKHMSRASQREGVSPRNSLEVLTPEVPGERDRGNCITSLQLHPKGWATLLRCSSNTDDQEWTCVYEFQEGAPVRPVSPRCSLRLTHYIEEANVGRGYIKELCFSPDGRMISSPHGYGIRLLGFDKQCSELVDCLPKEASPLRVIRSLYSHNDVVLTTKFSPTHCQIASGCLSGRVSLYQPKF”, the protein production result is recorded as “failed”.

Consider “MFPLTEENKHVAQLLLNTGTCPRCIFRFCGVDFHAPYKLPYKELLNELQKFLETEKDELILEVMNPPPKKIRLQELEDSIDNLSQNGEGRISVSHVGSTASKNSNLNVCNVCLGILQEFCEKDFIKKVCQKVEASGFEFTSLVFSVSFPPQLSVREHAAWLLVKQEMGKQSLSLGRDDIVQLKEAYKWITHPLFSEELGVPIDGKSLFEVSVVFAHPETVEDCHFLAAICPDCFKPAKNKQSVFTRMAVMKALNKIKEEDFLKQFPCPPNSPKAVCAVLEIECAHGAVFVAGRYNKYSRNLPQTPWIIDGERKLESSVEELISDHLLAVFKAESFNFSSSGREDVDVRTLGNGRPFAIELVNPHRVHFTSQEIKELQQKINNSSNKIQVRDLQLVTREAIGHMKEGEEEKTKTYSALIWTNKAIQKKDIEFLNDIKDLKIDQKTPLRVLHRRPLAVRARVIHFMETQYVDEHHFRLHLKTQAGTYIKEFVHGDFGRTKPNIGSLMNVTADILELDVESVDVDWPPALDD”, for which the protein production result was “failed”.

For the sequence “MFQDPTDEYIRTITAHCDLAGKEVLEVGCGTGRITRDLARHARRVVAVDPDETALAKARSAVPAPNVQFLPMPDGVLHFPPASFDVVIHTLSLHHVPLDRMNESLRAAAGLVRDGGVIVVVEPGDGGSFTEAKERFGAGSGDERPGREAAIRAMHGLDGWTVGETVLFRVRFLFADEDDFIATKLPGFGEKPEAFQQEVREFLARHRTAEGVVLDAGRRLNVLRRG”, the protein production entry is “failed”.

For “MFQSKSRTSLTNKKTLLFGLISVFLCGMGFSIIMPVVPFLVTPYVTNASDQALMVTLLTSVYAFCVFFAAPGLGALSDRFGRRPVLLICFIGSAIGYFIFGLGGALWVLFLGRIIEGITGGSISTLFAFFADITPQEERTKYFGWVSAAAGAGAALGPAFGGLLAHFGYAMPFFFGATITFINFLFGYFYMPESLDDANRLKRIPLMRLNPFSQLLNILTIKNLGRLLIAAFFIWVPNGSLQAVMSQFAIDSFSWKPALIGMMFSIMGIQDILSQAFVMPKLLIRLTDKQIAVLGMIAEIIGYSLIATSSIFTLAPLLVIGMFVFGFGDSIFGPSFNGMVSKAASASEQGRIQGGSQAIQSLARIIGPIIGGQIYITLGHAAPAIMGVLLITVAIFILYKKTSLAK”, the protein production entry is given as “failed”.

Consider “MFRPPSIKDAKKIWELIGRCKPLDINSPYCYALIGRDFFDSSIVYEEEGRIKGVVIGYLRPRAPERLFVWQVAIEAKSRGKGIAKRAIEAILKNLERKGHCIQAIEATYTPSNLASKALFHALGREWKVVWIEENFLEGALLSAQEAHEEEWLITLPFSSEALGVQGANHANL”, for which the protein production entry is reported as “failed”.

For the sequence “MFSGCVERSTRVLQDQEGDTVTSSPAGNKLPNINGLRDSNPRHSLGYRVQHRARTVVASVIVAMLVFAGTAAAATWLDVDNVIQHQKVDVIGQGSVSAEPTIIDPNSGKPIEILLLGQDSRDGEGNQAIGGDMTGNHQADTAMVLQISADRSAINLVSIPRDSLVDVPQCETSKGTIPAQYGVMFNSIFAGAYQTGGDLASAASCTLNAVNSLTGLNIQNFIVVDFAGLVKMIDAIGGVDICVPQDIDDPYSTLQLSKGMQHLDGTQATQYARTRYTLGDGSDTARTTRQQYLIKQLMSEALSKNLFTDTAQLYQLAKSALESLNISEGMADTAALVGLAMSLKNFNMSHLYTQTVPVVAAPSDPNRSVWADNADEVWAKMREGKSLFESTETNATSTDSTTTDGTTESQNTDENSGEQAQSTETPDATTGLITRADGTLIDPNTGGTVDPEDGSIHDATTGQYIGIADRYLNATVCAVPAKN”, the protein production entry is recorded as “failed”.

In the case of “MFSLKNYSPSPLLSAKAKEYLVFTLVTLTIVVAGTLLFLFDPASSKLFPPSPFRSLTGLYCPGCGTLRALHQLLHGNLVGAFGLNPLMMISLPFMIYSYVAYGLKTINGRTLLVWFVPPKVIWFILQAILAYWVARNIPFAPFSWLAP”, the protein production result was “failed”.
